Test results published in patent US20210054055A1.
Read-outs that look alike come from different tables or passages of the source.

Experiments:
[1] = target: Zika virus (ZIKV) virions, envelope protein E (Zika virus)
[2] = target: Dengue virus serotype 4 (DENV4) virions, envelope protein E (Dengue virus 4)
[3] = target: Dengue virus serotype 4 (DENV4) virions, envelope protein E (Dengue virus 4); remark: listed apart in the source
[4] = target: Zika virus (ZIKV) virions, envelope protein E (Zika virus); remark: listed apart in the source

Work on 1M7 (antibody) yielded an IC50 (read off the curve) [1] of 0.09 µg/mL.

2D22 (antibody) gave an EC50 (read off the curve) (DENV) of 0.08 µg/mL.

For EDE1 mAb C8 (antibody), the IC50 (read off the curve) [1] was 0.2 µg/mL.

EDE1 mAb C10 (antibody) gave an EC50 (read off the curve) [2] of 0.2 µg/mL, an FRNT50 (focus reduction neutralization on Vero cells) (Dakar (Zika virus)) of 28.5 ng/mL and an FRNT50 (focus reduction neutralization on Vero cells) [3] of 88.9 ng/mL. For the same substance, the FRNT50 (focus reduction neutralization on Vero cells) (H/PF/2013 (Zika virus)) was 16.2 ng/mL, the FRNT50 (focus reduction neutralization on Vero cells) (MR766) was 0.2 ng/mL and the EC50 (read off the curve) (DENV) was 0.08 µg/mL.

ZKA78 (antibody) showed an IC50 (read off the curve) [1] of 0.2 µg/mL.

“ZKA190, human ZIKV-specific mAb (antibody)” gave an IC50 (read off the curve) [4] of 0.07 µg/mL.
